US20250333749A1, “INDUCIBLE PROMOTER, VECTOR AND HOST CELL BASED THEREON” (JOINT STOCK COMPANY «BIOCAD», priority 2021, published 2025)

Key:
[1] = biological target: AXL receptor expressed on HEK293 reporter cells (HEK293_STAT3-STAT5-AP1_FLuc_AXL; HEK293_AXL_STAT3-STAT5-AP1_FLuc) (UniProt P30530); assay: cell-based or functional assay
[2] = system: HEK293 Nf-kB reporter line; assay: Activation of HEK293 Nf-kB reporter line by PMA (luciferase); type: cell-based; conditions: 24 hours incubation; FIG. 5
Procedure: (§1) We used a PMA activator to screen clonal reporter lines. This agent directly effects protein kinase C, thus triggering signaling cascades that activate the reporter gene expression (https://doi.org/10.1007/s11373-005-1210-5; doi: 10.1093/carcin/bgm261). To determine the optimal dose of PMA, we conducted experiments involving activation of the HEK293 Nf-kB reporter line. Cells were seeded in a white 96-well culture plate for adhesion cultures at 3*10^5 cells per well, and PMA activator was added at concentrations indicated in the graph up to 150 μl in a well. All solutions were prepared in DMEM growth medium supplemented with 10% fetal bovine serum, 2 mM L-glutamine and 10 μg/ml gentamicin. The plate was incubated for 24 hours at 37° C. in a humid atmosphere in the presence of 5% CO2. Following incubation, the wells were drained, and 100 μl of luciferin substrate with a lysing component was added, the plate was left in the dark for 10 minutes, after which the luminescence level was detected using a plate reader using the SparkControl V2.1 software package (Tecan, Austria).

[3] = system: HEK293-STAT3-STAT5-AP1_FLuc_IL10R cells (IL-10 receptor); assay: IL10 activity determination test (luciferase expression activation); type: cell-based, human; conditions: various concentrations of IL10; FIG. 8
Procedure: as §1
To evaluate the reporter line in a specific cell test, we expressed the IL-10 receptor onto the surface of the reporter cells. To this end, the HEK293_STAT3-STAT5-AP1_FLuc reporter cell line produced in Example 4 was transfected with plasmid vectors encoding IL-10 receptor subunits produced in Example 2. […]

Chain of UniProt P30530 (P30530 26-894 limits assumed): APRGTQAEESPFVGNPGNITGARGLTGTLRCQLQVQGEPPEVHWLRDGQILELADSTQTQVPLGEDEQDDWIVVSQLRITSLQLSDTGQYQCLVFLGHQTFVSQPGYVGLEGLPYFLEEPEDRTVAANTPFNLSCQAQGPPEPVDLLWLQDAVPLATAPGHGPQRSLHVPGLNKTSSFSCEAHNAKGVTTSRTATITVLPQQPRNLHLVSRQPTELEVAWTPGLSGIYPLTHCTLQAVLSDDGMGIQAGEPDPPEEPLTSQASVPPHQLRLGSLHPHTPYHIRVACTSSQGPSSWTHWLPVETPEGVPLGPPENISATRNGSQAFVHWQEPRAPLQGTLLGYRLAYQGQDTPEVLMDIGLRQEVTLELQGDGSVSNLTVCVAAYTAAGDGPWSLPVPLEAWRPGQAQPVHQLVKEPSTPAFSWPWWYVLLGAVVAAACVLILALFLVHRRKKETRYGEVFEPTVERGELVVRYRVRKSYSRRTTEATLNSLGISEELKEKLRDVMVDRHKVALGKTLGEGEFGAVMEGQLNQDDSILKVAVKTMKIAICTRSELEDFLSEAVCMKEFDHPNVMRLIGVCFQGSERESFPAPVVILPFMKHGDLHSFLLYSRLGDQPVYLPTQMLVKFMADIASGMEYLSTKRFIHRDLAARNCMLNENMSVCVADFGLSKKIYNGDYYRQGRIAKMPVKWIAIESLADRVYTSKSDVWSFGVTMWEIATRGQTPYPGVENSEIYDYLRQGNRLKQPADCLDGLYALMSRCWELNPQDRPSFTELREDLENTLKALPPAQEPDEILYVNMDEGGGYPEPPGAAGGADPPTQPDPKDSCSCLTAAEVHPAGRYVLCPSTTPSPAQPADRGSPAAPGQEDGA

AXL ligand GAS6 (from UniProt Q14393 49-678)
level of GAS6-dependent activation, well A1 (fold over non-activated cells) [1]: 1.35
level of GAS6-dependent activation, well A2 (fold over non-activated cells) [1]: 1.59
level of GAS6-dependent activation, well A3 (fold over non-activated cells) [1]: 8.66
level of GAS6-dependent activation, well A4 (fold over non-activated cells) [1]: 1.09
level of GAS6-dependent activation, well A6 (fold over non-activated cells) [1]: 1.49
level of GAS6-dependent activation, well A7 (fold over non-activated cells) [1]: 2.16
level of GAS6-dependent activation, well A8 (fold over non-activated cells) [1]: 0.85
level of GAS6-dependent activation, well A9 (fold over non-activated cells) [1]: 0.96
level of GAS6-dependent activation, well A10 (fold over non-activated cells) [1]: 6.93
level of GAS6-dependent activation, well A11 (fold over non-activated cells) [1]: 1.54
level of GAS6-dependent activation, well B1 (fold over non-activated cells) [1]: 1.09
level of GAS6-dependent activation, well B2 (fold over non-activated cells) [1]: 2.12
level of GAS6-dependent activation, well B3 (fold over non-activated cells) [1]: 1.33
level of GAS6-dependent activation, well B4 (fold over non-activated cells) [1]: 1.28
level of GAS6-dependent activation, well B5 (fold over non-activated cells) [1]: 1.5
level of GAS6-dependent activation, well B6 (fold over non-activated cells) [1]: 0.99
level of GAS6-dependent activation, well B7 (fold over non-activated cells) [1]: 1.12
level of GAS6-dependent activation, well B8 (fold over non-activated cells) [1]: 2.1
level of GAS6-dependent activation, well B9 (fold over non-activated cells) [1]: 1.26
level of GAS6-dependent activation, well B10 (fold over non-activated cells) [1]: 1.58
level of GAS6-dependent activation, well B11 (fold over non-activated cells) [1]: 2.56
level of GAS6-dependent activation, well B12 (fold over non-activated cells) [1]: 1.4
level of GAS6-dependent activation, well C1 (fold over non-activated cells) [1]: 0.92
level of GAS6-dependent activation, well C2 (fold over non-activated cells) [1]: 1.32
level of GAS6-dependent activation, well C3 (fold over non-activated cells) [1]: 0.95
level of GAS6-dependent activation, well C4 (fold over non-activated cells) [1]: 1.2
level of GAS6-dependent activation, well C5 (fold over non-activated cells) [1]: 1.2
level of GAS6-dependent activation, well C6 (fold over non-activated cells) [1]: 4.37
level of GAS6-dependent activation, well C8 (fold over non-activated cells) [1]: 1.04
level of GAS6-dependent activation, well C9 (fold over non-activated cells) [1]: 1.77
level of GAS6-dependent activation, well C10 (fold over non-activated cells) [1]: 3.15
level of GAS6-dependent activation, well C11 (fold over non-activated cells) [1]: 5.55
level of GAS6-dependent activation, well C12 (fold over non-activated cells) [1]: 1.47
level of GAS6-dependent activation, well D1 (fold over non-activated cells) [1]: 1.25
level of GAS6-dependent activation, well D2 (fold over non-activated cells) [1]: 1.29
level of GAS6-dependent activation, well D3 (fold over non-activated cells) [1]: 2.38
level of GAS6-dependent activation, well D4 (fold over non-activated cells) [1]: 2.41
level of GAS6-dependent activation, well D5 (fold over non-activated cells) [1]: 2.63
level of GAS6-dependent activation, well D6 (fold over non-activated cells) [1]: 1.32
level of GAS6-dependent activation, well D7 (fold over non-activated cells) [1]: 1.16
level of GAS6-dependent activation, well D8 (fold over non-activated cells) [1]: 2.12
level of GAS6-dependent activation, well D9 (fold over non-activated cells) [1]: 1.55
level of GAS6-dependent activation, well D10 (fold over non-activated cells) [1]: 1.68
level of GAS6-dependent activation, well D11 (fold over non-activated cells) [1]: 3.74
level of GAS6-dependent activation, well D12 (fold over non-activated cells) [1]: 1.23
level of GAS6-dependent activation, well E1 (fold over non-activated cells) [1]: 1.83
level of GAS6-dependent activation, well E2 (fold over non-activated cells) [1]: 0.93
level of GAS6-dependent activation, well E3 (fold over non-activated cells) [1]: 3.03
level of GAS6-dependent activation, well E4 (fold over non-activated cells) [1]: 1.18
level of GAS6-dependent activation, well E5 (fold over non-activated cells) [1]: 1.73
level of GAS6-dependent activation, well E6 (fold over non-activated cells) [1]: 1.51
level of GAS6-dependent activation, well E7 (fold over non-activated cells) [1]: 2.14
level of GAS6-dependent activation, well E8 (fold over non-activated cells) [1]: 1.13
level of GAS6-dependent activation, well E9 (fold over non-activated cells) [1]: 1.74
level of GAS6-dependent activation, well E10 (fold over non-activated cells) [1]: 1.55
level of GAS6-dependent activation, well E11 (fold over non-activated cells) [1]: 0.86
level of GAS6-dependent activation, well E12 (fold over non-activated cells) [1]: 1.03
level of GAS6-dependent activation, well F1 (fold over non-activated cells) [1]: 1.55
level of GAS6-dependent activation, well F2 (fold over non-activated cells) [1]: 1.34
level of GAS6-dependent activation, well F3 (fold over non-activated cells) [1]: 7.48
level of GAS6-dependent activation, well F4 (fold over non-activated cells) [1]: 1.79
level of GAS6-dependent activation, well F5 (fold over non-activated cells) [1]: 1.69
level of GAS6-dependent activation, well F7 (fold over non-activated cells) [1]: 2.89
level of GAS6-dependent activation, well F8 (fold over non-activated cells) [1]: 1.58
level of GAS6-dependent activation, well F9 (fold over non-activated cells) [1]: 1.53
level of GAS6-dependent activation, well F10 (fold over non-activated cells) [1]: 1.35
level of GAS6-dependent activation, well F11 (fold over non-activated cells) [1]: 1.29
level of GAS6-dependent activation, well F12 (fold over non-activated cells) [1]: 5.65
level of GAS6-dependent activation, well G1 (fold over non-activated cells) [1]: 2.05
level of GAS6-dependent activation, well G2 (fold over non-activated cells) [1]: 3.08
level of GAS6-dependent activation, well G3 (fold over non-activated cells) [1]: 2.51
level of GAS6-dependent activation, well G4 (fold over non-activated cells) [1]: 1.05
level of GAS6-dependent activation, well G5 (fold over non-activated cells) [1]: 1.55
level of GAS6-dependent activation, well G7 (fold over non-activated cells) [1]: 2.12
level of GAS6-dependent activation, well G8 (fold over non-activated cells) [1]: 2.51
level of GAS6-dependent activation, well G9 (fold over non-activated cells) [1]: 1.78
level of GAS6-dependent activation, well G10 (fold over non-activated cells) [1]: 2.5
level of GAS6-dependent activation, well G11 (fold over non-activated cells) [1]: 2.26
level of GAS6-dependent activation, well G12 (fold over non-activated cells) [1]: 3.43
level of GAS6-dependent activation, well H11 (the pool) (fold over non-activated cells) [1]: 3.61
level of GAS6-dependent activation, well H12 (fold over non-activated cells) [1]: 1.94

CCCCCCCCCCCCCC(=O)O[C@@H]1[C@@H](C)[C@@]2(O)[C@@H](C=C(CO)C[C@]3(O)C(=O)C(C)=C[C@@H]23)[C@@H]2C(C)(C)[C@]12OC(C)=O [PMA]
optimal concentration of the PMA activator [2]: 33 nM

B1: IL10: Recombinant human IL10 used as an activator (protein)
chain: SPGQGTQSENSCTHFPGNLPNMLRDLRDAFSRVKTFFQMKDQLDNLLLKESLLEDFKGYLGCQALSEMIQFYLEEVMPQAENQDPDIKAHVNSLGENLKTLRLRLRRCHRFLPCENKSKAVEQVKNAFNKLQEKGIYKAMSEFDIFINYIEAYMTMKIRN
response of the reporter cell line to IL10 activator [3]: dose-dependent response
